In the supplement of paper PMC7877785:
± gives the uncertainty stated by the source.

Test: self-splicing fitness, log relative to wild type (ln ratio); higher = more splicing; Tetrahymena group I intron in knt gene, E. coli kanamycin selection, DiMSum; sequences stand for … in CUCUCU…GGAGGGAAAAGUUAUCAGGCAUGCACCUGGUAGCUAGUCUUUAAACCAAUAGAUUGCAUCGGUUUAAAAGGCAAGACCGUCAAAUUGCGGGAAAGGGGUCAACAGCCGUUCAGUACCAAGUCUCAGGGGAAACUUUGAGAUGGCCUUGCAAAGGGUAUGGUAAUAAGCUGACGGACAUGGUCCUAACCACGCAGCCAAGUCCUAAGUCAACAGAUCUUCUGUUGAUAUGGAUGCAGUUCACAGACUAAAUGUCGGUCGGGGAAGAUGUAUUCUUCUCAUAAGAUAUAGUCGGACCUCUCCUUAAUGGGAGCUAGCGGAUGAAGUGAUGCAACACUGGAGCCGCUGGGAACUAAUUUGUAUGCGAAAGUAUAUUGAUUAGUUUUGGAGUACUCGUGGUCG
Summary of the method: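 Pooled colonies went to amplicon sequencing on an Illumina HiSeq 2500 after six replicate transformations. The plates were LB agar with 100 μg/mL carbenicillin, 50 μM IPTG and 0.2% rhamnose, with or without 25 μg/mL kanamycin, incubated overnight at 37°C or 30°C. The E. coli BL21(DE3) library had all eight P1ex-region intron nucleotides randomised, the intron placed in the knt kanamycin-resistance gene on pET-22b(+). DiMSum fitness is the error-weighted combination of replicate fold changes, kanamycin against none, normalised to wild type.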

Q: With UCAUAGCAAUAUUACGAGAU as the sequence, how does the “self-splicing fitness (ln)” value (30 °C) read?
A: -3.85 ± 0.21

Q: And the “self-splicing fitness (ln)” value (37 °C)?
A: -3.29 ± 0.26

Q: For AUUGAGCAAUAUUACGGCCC, which “self-splicing fitness (ln)” value (37 °C) is on record?
A: 0.679 ± 0.5

Q: What does the source list for GAGAAGCAAUAUUACGGACC?
A: self-splicing fitness (ln) (30 °C): -0.43 ± 0.18; self-splicing fitness (ln) (37 °C): 0.267 ± 0.19

Q: What does the source list for CCCCAGCAAUAUUACGUUGU?
A: self-splicing fitness (ln) (30 °C): -3.93 ± 0.12; self-splicing fitness (ln) (37 °C): -2.77 ± 0.13

Q: With GUGGAGCAAUAUUACGCAUC as the sequence, how does the “self-splicing fitness (ln)” value (37 °C) read?
A: -2.03 ± 0.41

Q: Which “self-splicing fitness (ln)” value (30 °C) does the source give for UGUUAGCAAUAUUACGAGAC here?
A: -3.17 ± 0.37

Q: What does the source list for CUUCAGCAAUAUUACGUACG?
A: self-splicing fitness (ln) (30 °C): -0.327 ± 0.062; self-splicing fitness (ln) (37 °C): 0.542 ± 0.088

Q: With UUAUAGCAAUAUUACGUCAG as the sequence, how does the “self-splicing fitness (ln)” value (30 °C) read?
A: -1.61 ± 0.13

Q: And the “self-splicing fitness (ln)” value (37 °C)?
A: -0.818 ± 0.12

Q: For CCUAAGCAAUAUUACGCCGU, which “self-splicing fitness (ln)” value (30 °C) is on record?
A: -2.92 ± 0.19

Q: What about the “self-splicing fitness (ln)” value (37 °C) of the same sequence?
A: -3.22 ± 0.29

Q: Which results are given for GGGAAGCAAUAUUACGGUGC?
A: self-splicing fitness (ln) (30 °C): -1.17 ± 0.17; self-splicing fitness (ln) (37 °C): -0.397 ± 0.22

Q: For UGGAAGCAAUAUUACGCCUU, which “self-splicing fitness (ln)” value (30 °C) is on record?
A: -2.28 ± 0.31

Q: Which results are given for GAAGAGCAAUAUUACGUAAG?
A: self-splicing fitness (ln) (30 °C): -3.39 ± 0.21; self-splicing fitness (ln) (37 °C): -1.5 ± 0.16

Q: For CUGGAGCAAUAUUACGCUGG, which “self-splicing fitness (ln)” value (37 °C) is on record?
A: -2.98 ± 0.35

Q: For GCCGAGCAAUAUUACGCCAA, which “self-splicing fitness (ln)” value (30 °C) is on record?
A: -1.62 ± 0.43

Q: Which results are given for GUCCAGCAAUAUUACGACGG?
A: self-splicing fitness (ln) (30 °C): -3.49 ± 0.2; self-splicing fitness (ln) (37 °C): -2.66 ± 0.23

Q: For AUAGAGCAAUAUUACGUCAA, which “self-splicing fitness (ln)” value (30 °C) is on record?
A: -2.19 ± 0.23

Q: What about the “self-splicing fitness (ln)” value (37 °C) of the same sequence?
A: -1.77 ± 0.24

Q: Which “self-splicing fitness (ln)” value (30 °C) does the source give for CGCCAGCAAUAUUACGUAUC here?
A: -3.94 ± 0.33

Q: What about the “self-splicing fitness (ln)” value (37 °C) of the same sequence?
A: -3.92 ± 0.42

Q: Which “self-splicing fitness (ln)” value (30 °C) does the source give for GGUUAGCAAUAUUACGUCGU here?
A: -0.855 ± 0.073

Q: And the “self-splicing fitness (ln)” value (37 °C)?
A: 0.451 ± 0.11

Q: With ACCUAGCAAUAUUACGUCCU as the sequence, how does the “self-splicing fitness (ln)” value (30 °C) read?
A: -0.685 ± 0.067

Q: What about the “self-splicing fitness (ln)” value (37 °C) of the same sequence?
A: -0.579 ± 0.075

Q: Which “self-splicing fitness (ln)” value (30 °C) does the source give for CUUAAGCAAUAUUACGGUGU here?
A: -3.31 ± 0.22

Q: And the “self-splicing fitness (ln)” value (37 °C)?
A: -2.02 ± 0.18

Q: For CGUGAGCAAUAUUACGACGA, which “self-splicing fitness (ln)” value (30 °C) is on record?
A: -1.92 ± 0.12

Q: What about the “self-splicing fitness (ln)” value (37 °C) of the same sequence?
A: -0.885 ± 0.12

Q: Which “self-splicing fitness (ln)” value (30 °C) does the source give for UUCGAGCAAUAUUACGUGAU here?
A: -1.8 ± 0.2

Q: And the “self-splicing fitness (ln)” value (37 °C)?
A: -1.35 ± 0.21

Q: Which “self-splicing fitness (ln)” value (37 °C) does the source give for UUCGAGCAAUAUUACGCACU here?
A: -1.76 ± 0.38

Q: Which “self-splicing fitness (ln)” value (30 °C) does the source give for GGCUAGCAAUAUUACGGUGG here?
A: -1.23 ± 0.096

Q: And the “self-splicing fitness (ln)” value (37 °C)?
A: -0.767 ± 0.1

Q: With GGGCAGCAAUAUUACGUACU as the sequence, how does the “self-splicing fitness (ln)” value (30 °C) read?
A: -0.53 ± 0.098

Q: What about the “self-splicing fitness (ln)” value (37 °C) of the same sequence?
A: -0.834 ± 0.11

Q: What does the source list for UCCCAGCAAUAUUACGAACU?
A: self-splicing fitness (ln) (30 °C): -3.52 ± 0.33; self-splicing fitness (ln) (37 °C): -2.92 ± 0.43

Q: Which “self-splicing fitness (ln)” value (30 °C) does the source give for UACCAGCAAUAUUACGGCCU here?
A: -0.232 ± 0.078

Q: What about the “self-splicing fitness (ln)” value (37 °C) of the same sequence?
A: 0.212 ± 0.094

Q: With AGAGAGCAAUAUUACGCCAG as the sequence, how does the “self-splicing fitness (ln)” value (30 °C) read?
A: -3.51 ± 0.35

Q: What about the “self-splicing fitness (ln)” value (37 °C) of the same sequence?
A: -2.94 ± 0.38

Q: With CCAAAGCAAUAUUACGGUAC as the sequence, how does the “self-splicing fitness (ln)” value (30 °C) read?
A: -3.5 ± 0.24

Q: What about the “self-splicing fitness (ln)” value (37 °C) of the same sequence?
A: -3.13 ± 0.29

Q: With GCCAAGCAAUAUUACGGCUA as the sequence, how does the “self-splicing fitness (ln)” value (30 °C) read?
A: -1.66 ± 0.17

Q: And the “self-splicing fitness (ln)” value (37 °C)?
A: -1.39 ± 0.15

Q: With AAAAAGCAAUAUUACGAUAG as the sequence, how does the “self-splicing fitness (ln)” value (30 °C) read?
A: -3.26 ± 0.17

Q: What about the “self-splicing fitness (ln)” value (37 °C) of the same sequence?
A: -1.11 ± 0.15

Q: Which “self-splicing fitness (ln)” value (30 °C) does the source give for UUGGAGCAAUAUUACGUCAU here?
A: -3.84 ± 0.47

Q: And the “self-splicing fitness (ln)” value (37 °C)?
A: -1.45 ± 0.34

Q: For AAUCAGCAAUAUUACGUCCU, which “self-splicing fitness (ln)” value (30 °C) is on record?
A: 0.497 ± 0.09

Q: And the “self-splicing fitness (ln)” value (37 °C)?
A: 0.632 ± 0.11

Q: What does the source list for GUGCAGCAAUAUUACGAACG?
A: self-splicing fitness (ln) (30 °C): -2.4 ± 0.2; self-splicing fitness (ln) (37 °C): -0.213 ± 0.14

Q: What does the source list for CGGCAGCAAUAUUACGGCAC?
A: self-splicing fitness (ln) (30 °C): -2.58 ± 0.28; self-splicing fitness (ln) (37 °C): -2.21 ± 0.22

Q: With AAAGAGCAAUAUUACGUCGA as the sequence, how does the “self-splicing fitness (ln)” value (30 °C) read?
A: -3.5 ± 0.27

Q: And the “self-splicing fitness (ln)” value (37 °C)?
A: -2.09 ± 0.18

Q: Which “self-splicing fitness (ln)” value (30 °C) does the source give for UCGAAGCAAUAUUACGGAUC here?
A: -3.14 ± 0.23

Q: What about the “self-splicing fitness (ln)” value (37 °C) of the same sequence?
A: -2.64 ± 0.37

Q: Which “self-splicing fitness (ln)” value (30 °C) does the source give for UAUUAGCAAUAUUACGGCGG here?
A: -0.834 ± 0.11

Q: What about the “self-splicing fitness (ln)” value (37 °C) of the same sequence?
A: -0.195 ± 0.12

Q: Which “self-splicing fitness (ln)” value (30 °C) does the source give for GCAUAGCAAUAUUACGUGGU here?
A: -3.13 ± 0.14

Q: What about the “self-splicing fitness (ln)” value (37 °C) of the same sequence?
A: -2.8 ± 0.15

Q: Which “self-splicing fitness (ln)” value (30 °C) does the source give for CCAAAGCAAUAUUACGAUCA here?
A: -2.94 ± 0.13

Q: And the “self-splicing fitness (ln)” value (37 °C)?
A: -3.1 ± 0.31

Q: With CCAUAGCAAUAUUACGUCUU as the sequence, how does the “self-splicing fitness (ln)” value (30 °C) read?
A: -3.12 ± 0.15

Q: What about the “self-splicing fitness (ln)” value (37 °C) of the same sequence?
A: -2.56 ± 0.17

Q: With UAUAAGCAAUAUUACGGUCG as the sequence, how does the “self-splicing fitness (ln)” value (30 °C) read?
A: -0.167 ± 0.097

Q: And the “self-splicing fitness (ln)” value (37 °C)?
A: -0.128 ± 0.12

Q: For GUCGAGCAAUAUUACGUGUA, which “self-splicing fitness (ln)” value (30 °C) is on record?
A: -3.26 ± 0.2

Q: And the “self-splicing fitness (ln)” value (37 °C)?
A: -2.12 ± 0.19

Q: With GAAAAGCAAUAUUACGAUAG as the sequence, how does the “self-splicing fitness (ln)” value (30 °C) read?
A: -3.28 ± 0.15

Q: What about the “self-splicing fitness (ln)” value (37 °C) of the same sequence?
A: -1.69 ± 0.15

Q: Which “self-splicing fitness (ln)” value (30 °C) does the source give for CACUAGCAAUAUUACGUGGU here?
A: -3.41 ± 0.15

Q: What about the “self-splicing fitness (ln)” value (37 °C) of the same sequence?
A: -2.88 ± 0.17

Q: With AGUCAGCAAUAUUACGCGAU as the sequence, how does the “self-splicing fitness (ln)” value (30 °C) read?
A: -3.56 ± 0.24

Q: And the “self-splicing fitness (ln)” value (37 °C)?
A: -1.01 ± 0.14

Q: With GUCGAGCAAUAUUACGCAUG as the sequence, how does the “self-splicing fitness (ln)” value (30 °C) read?
A: -3.47 ± 0.25

Q: What about the “self-splicing fitness (ln)” value (37 °C) of the same sequence?
A: -2.43 ± 0.22

Q: With UGGCAGCAAUAUUACGCACU as the sequence, how does the “self-splicing fitness (ln)” value (30 °C) read?
A: -0.473 ± 0.068

Q: What about the “self-splicing fitness (ln)” value (37 °C) of the same sequence?
A: 0.399 ± 0.094

Q: With UACCAGCAAUAUUACGGCUU as the sequence, how does the “self-splicing fitness (ln)” value (30 °C) read?
A: -0.562 ± 0.061

Q: What about the “self-splicing fitness (ln)” value (37 °C) of the same sequence?
A: 0.59 ± 0.097

Q: With AGUAAGCAAUAUUACGCCGA as the sequence, how does the “self-splicing fitness (ln)” value (30 °C) read?
A: -1.31 ± 0.45

Q: What about the “self-splicing fitness (ln)” value (37 °C) of the same sequence?
A: -0.709 ± 0.46
